The source of these data is US20220064281A1 (Ablynx, published 2022).

One experiment has as its target T1, human RANKL (human, UniProt O14788 140-317, limits assumed).
T1 construct: also called huRANKL
T1 sequence (looked up): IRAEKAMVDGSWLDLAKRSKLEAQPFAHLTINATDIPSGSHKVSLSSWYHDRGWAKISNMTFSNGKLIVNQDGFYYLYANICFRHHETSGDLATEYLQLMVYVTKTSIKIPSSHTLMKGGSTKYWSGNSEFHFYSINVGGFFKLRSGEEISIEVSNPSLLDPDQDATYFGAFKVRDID
Description: SPR, target immobilized by amine coupling, F027500069 injected. As to the method:
(§1) Absence of binding to TNFα and IL-23 related human cytokines was assessed via SPR. hIL-12 was tested, as it shares the p40 subunit with IL-23. TNF superfamily members human FASL, TNFβ, LIGHT, TL-1A, RANKL were tested as related cytokines for TNFα.
(§2) Next, 1 μM of F027500069 was injected for 2 minutes and allowed to dissociate for 900s at a flow rate of 45 μL/min. As running buffer 1×HBS-EP+ pH7.4 was used. As positive controls, 0.2 μM α-huIL-12 Ab and 0.5 μM α-huFASL Ab, 0.5 μM α-huTNFβ Ab, 0.5 μM α-huLIGHT Ab, 0.5 μM α-huTL-1A Ab and 0.5 μM α-huRANKL VHH were injected. Interaction between F027500069 and the positive controls with the immobilized targets was measured by detection of increases in […] which occurs as a result of mass changes on the chip upon binding.
(In general: SPR reads the build-up and loss of mass on a sensor chip optically.)

For a further experiment, the target named is T2, human LIGHT (human, UniProt O43557 74-240, limits assumed).
T2 construct: also called huLIGHT
T2 sequence (O43557 74-240 limits assumed): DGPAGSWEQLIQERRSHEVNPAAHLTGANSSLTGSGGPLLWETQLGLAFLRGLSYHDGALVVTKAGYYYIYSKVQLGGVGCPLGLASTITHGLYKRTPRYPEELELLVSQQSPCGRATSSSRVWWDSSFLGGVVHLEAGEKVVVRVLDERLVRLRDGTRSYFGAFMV
The description is as above. As to the method:
as §1, §2

The target in the next experiment is T3, human FASL (human, UniProt P48023 134-281, limits assumed).
T3 construct: also called huFASL
T3 sequence (looked up): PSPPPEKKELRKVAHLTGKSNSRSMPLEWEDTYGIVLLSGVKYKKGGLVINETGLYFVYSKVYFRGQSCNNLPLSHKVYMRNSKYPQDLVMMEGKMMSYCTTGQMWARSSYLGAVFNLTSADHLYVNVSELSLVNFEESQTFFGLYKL
Described as above. The procedure:
as §1, §2

The target in a further experiment is T4, human TNFβ (human, UniProt P01374 35-205).
T4 construct: also called huTNFβ
T4 sequence (looked up): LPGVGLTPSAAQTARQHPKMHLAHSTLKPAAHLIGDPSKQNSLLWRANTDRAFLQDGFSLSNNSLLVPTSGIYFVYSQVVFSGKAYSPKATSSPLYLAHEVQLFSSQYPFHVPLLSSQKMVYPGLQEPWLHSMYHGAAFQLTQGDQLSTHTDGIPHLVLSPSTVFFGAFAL
Described as above. The procedure: as §1, §2

Another experiment has as its target T5, human TL-1A (human, UniProt O95150 72-251).
T5 construct: also called huTL-1A
T5 sequence (looked up): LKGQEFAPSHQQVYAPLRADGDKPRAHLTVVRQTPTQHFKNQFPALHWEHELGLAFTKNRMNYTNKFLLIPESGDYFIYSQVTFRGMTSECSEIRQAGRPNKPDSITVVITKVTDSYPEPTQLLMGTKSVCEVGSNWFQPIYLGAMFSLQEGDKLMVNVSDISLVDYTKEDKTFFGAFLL
Described as above. The procedure: as §1, §2

In the next experiment the target is T6, human IL-12 (human, UniProt P29459 23-219; P29460 23-328).
T6 construct: also called hIL-12
T6 sequence (looked up) 1: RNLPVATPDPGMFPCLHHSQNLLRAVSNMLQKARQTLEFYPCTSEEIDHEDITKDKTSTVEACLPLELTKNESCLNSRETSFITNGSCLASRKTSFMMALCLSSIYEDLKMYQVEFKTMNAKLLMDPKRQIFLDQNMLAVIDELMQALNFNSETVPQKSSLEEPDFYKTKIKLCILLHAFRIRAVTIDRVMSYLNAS
T6 sequence (looked up) 2: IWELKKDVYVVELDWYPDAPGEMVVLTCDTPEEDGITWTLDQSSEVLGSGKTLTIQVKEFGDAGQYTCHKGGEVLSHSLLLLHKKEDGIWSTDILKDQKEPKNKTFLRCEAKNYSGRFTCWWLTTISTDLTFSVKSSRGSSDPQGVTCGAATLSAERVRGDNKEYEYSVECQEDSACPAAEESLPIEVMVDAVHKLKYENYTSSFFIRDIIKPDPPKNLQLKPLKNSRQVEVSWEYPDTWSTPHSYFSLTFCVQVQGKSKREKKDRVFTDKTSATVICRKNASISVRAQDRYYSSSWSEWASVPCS
Described as above. The procedure:
as §1, §2

Experiment [1] deals with T7, human membrane TNFα (human, UniProt P01375 1-233).
T7 construct: whole, on cells; also called membrane expressed TNFα
T7 sequence (P01375 whole entry): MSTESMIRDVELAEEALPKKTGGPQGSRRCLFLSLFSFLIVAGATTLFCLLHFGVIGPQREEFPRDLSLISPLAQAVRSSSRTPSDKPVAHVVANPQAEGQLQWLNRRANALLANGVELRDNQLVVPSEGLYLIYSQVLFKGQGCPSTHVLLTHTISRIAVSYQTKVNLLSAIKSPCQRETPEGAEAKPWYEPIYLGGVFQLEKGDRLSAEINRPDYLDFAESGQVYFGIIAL
Description: flow cytometry, human membrane TNFα expressing HEK293H cells, fixed cells, 24 h at room temperature. As to the method: (§3) Briefly, cells were seeded at a density of 1×10⁴ cells/well and incubated with a dilution series of F027500069 starting from 100 nM up to 0.5 pM, for 1 hour at 4° C. In parallel, cells were fixed with 4% paraformaldehyde and 0.1% Glutaraldehyde in PBS, before seeding (to increase detection of membrane bound TNFα) and incubated with a dilution series of ISVD for 1 hour at 4° C. or for 24 hours at room temperature. Cells were washed 3 times and subsequently incubated with an anti-VHH mAb for 30 min at 4° C., washed again, and incubated for 30 min at 4° C. with a goat anti-mouse PE labelled antibody. Samples were washed and resuspended in FACS Buffer (D-PBS with 10% FBS and 0.05% sodium azide supplemented with 5 nM TOPRO3). Cell suspensions were then analysed on an iQuescreener. EC50 values were calculated using GraphPad Prism.

Experiment [2] has as its target T8, cyno TNFα (cynomolgus monkey, UniProt P79337 77-233).
T8 construct: also called cynomolgus monkey TNFα
Kind of experiment: Gyrolab in-solution affinity, 24 h incubation. From the text: (§4) Biotinylated human TNFα/IL-23/serum albumin was captured in the microstructures of a Gyrolab Bioaffy 1000 CD, which contains columns of beads and is used as a molecular probe to capture free F027500069 from the equilibrated solution. The mixture of TNFα/IL-23/serum albumin and F027500069 (containing free TNFα/IL-23/serum albumin, free F027500069 and TNFα/IL-23/serum albumin—F027500069 complexes) was allowed to flow through the beads, and a small percentage of free F027500069 was captured, which is proportional to the free ISVD concentration. A fluorescently labelled anti-VHH antibody was then injected to label any captured F027500069 and after rinsing away excess of fluorescent probe, the change in fluorescence was determined. Fitting of the dilution series was done using Gyrolab Analysis software, where KD⁻ and receptor-controlled curves were analyzed to determine the KD value.

Experiment [3] addresses T9, cyno IL-23 (cynomolgus monkey).
T9 construct: also called recombinant IL-23 from cynomolgus monkey
Description: Gyrolab in-solution affinity, 24 h incubation.
Source text: as §4

Experiment [4] has as its target T10, human TNFα (human, UniProt P01375 77-233).
T10 construct: Biotinylated human TNFα served as capture probe in the Gyrolab assay; also called hTNFα; Tumor Necrosis Factor alpha
Kind of experiment: Gyrolab in-solution affinity, 24 h incubation.
Source text: as §4

A further experiment addresses T11, human serum albumin (human, UniProt P02768 25-609).
T11 construct: also called HSA; SA (human)
Kind of experiment: Gyrolab in-solution affinity, 2 h incubation.
Source text: as §4

The target of a further experiment is T12, cyno serum albumin (cynomolgus monkey, UniProt A2V9Z4 25-608).
T12 construct: also called SA (cynomolgus monkey)
T12 sequence (A2V9Z4 25-608 limits assumed): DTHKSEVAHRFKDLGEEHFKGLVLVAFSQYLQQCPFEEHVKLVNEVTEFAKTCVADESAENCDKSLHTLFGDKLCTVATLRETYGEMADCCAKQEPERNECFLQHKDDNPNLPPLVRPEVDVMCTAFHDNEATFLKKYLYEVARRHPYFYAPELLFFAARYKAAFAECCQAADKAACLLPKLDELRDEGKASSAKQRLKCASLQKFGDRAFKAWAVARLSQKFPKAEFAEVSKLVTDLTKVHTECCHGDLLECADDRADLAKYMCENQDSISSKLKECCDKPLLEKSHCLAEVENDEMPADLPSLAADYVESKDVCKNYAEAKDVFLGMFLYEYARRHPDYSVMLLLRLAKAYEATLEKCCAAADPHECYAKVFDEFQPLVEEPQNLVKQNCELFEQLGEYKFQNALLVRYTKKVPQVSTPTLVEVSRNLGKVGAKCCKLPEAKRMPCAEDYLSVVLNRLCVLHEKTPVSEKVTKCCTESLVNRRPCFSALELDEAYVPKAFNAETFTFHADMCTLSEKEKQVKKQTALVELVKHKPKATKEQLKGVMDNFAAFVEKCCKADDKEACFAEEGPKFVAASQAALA
Kind of experiment: Gyrolab in-solution affinity, 2 h incubation.
Source text: as §4

Experiment [5] concerns the target T8, cyno TNFα. Kind of experiment: Gyrolab in-solution affinity, 48 h incubation.
Source text: as §4

The target in experiment [6] is T9, cyno IL-23. Kind of experiment: Gyrolab in-solution affinity, 48 h incubation.
Source text: as §4

For experiment [7], the target named is T10, human TNFα. Description: Gyrolab in-solution affinity, 48 h incubation.
Source text: as §4

For experiment [8], the target named is T9, cyno IL-23. Kind of experiment: cell-based or functional assay.
Experiment [9] concerns the target T7, human membrane TNFα. Description: flow cytometry, human membrane TNFα expressing HEK293H cells, viable cells, 1 h at 4 °C. As to the method:
as §3
For orientation: A flow cytometer gives signals particle by particle.

For the next experiment, the target named is T13, OX40L (human, UniProt P23510).
T13 construct: soluble recombinant protein; also called hOX40L
T13 sequence (ligand chain, looked up): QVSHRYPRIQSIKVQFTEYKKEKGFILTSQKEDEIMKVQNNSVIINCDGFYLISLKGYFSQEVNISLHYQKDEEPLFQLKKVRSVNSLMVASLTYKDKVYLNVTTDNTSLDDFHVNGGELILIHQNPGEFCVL
Description: SPR (ProteOn XPR36): 100 nM F027500069 captured on immobilized HSA, then 100 nM hOX40L injected for 2 min, alone or mixed with 100 nM IL-23 or TNFα, followed by 600 s dissociation. The procedure: A ProteOn XPR36 instalment was used to determine whether F027500069 can bind simultaneously to hTNFα and hIL-23. To this end HSA was immobilized on a GLC ProteOn Sensor chip via amine coupling. 100 nM of F027500069 was injected for 2 min at 10 μl/min over the HSA surface in order to capture the ISVD via the ALB23002 building block. Subsequently either 100 nM of hIL-23, hTNFα or hOX40L were injected or mixtures of 100 nM IL-23+100 nM TNFα, 100 nM IL-23+100 nM OX40L or 100 nM TNFα+[…], at a flow rate of 10 μl/min for 2 min followed by a subsequent 600 seconds dissociation step. The HSA surfaces were regenerated with a 2-minute injection of HCl (100 mM) at 45 μl/min.

In experiment [10] the target is T7, human membrane TNFα. Description: flow cytometry, human membrane TNFα expressing HEK293H cells, fixed cells. The procedure:
as §3

In experiment [11] the target is T8, cyno TNFα. Description: cell-based or functional assay.
Experiment [12] concerns the target T10, human TNFα. Kind of experiment: cell-based or functional assay.
The target of experiment [13] is T7, human membrane TNFα. Description: flow cytometry, human membrane TNFα expressing HEK293H cells, fixed cells, 1 h at 4 °C. The procedure:
as §3

T10 sequence (P01375 77-233 limits assumed): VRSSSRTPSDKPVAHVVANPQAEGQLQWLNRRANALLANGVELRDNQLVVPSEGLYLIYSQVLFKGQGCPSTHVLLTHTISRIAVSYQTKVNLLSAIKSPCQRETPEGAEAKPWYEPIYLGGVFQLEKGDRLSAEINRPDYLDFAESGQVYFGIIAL
T8 sequence (P79337 77-233 limits assumed): as the sequence (P01375 77-233 limits assumed) above, with L37V, R44T, T72N, R138L counted along it
T11 sequence (P02768 25-609 limits assumed): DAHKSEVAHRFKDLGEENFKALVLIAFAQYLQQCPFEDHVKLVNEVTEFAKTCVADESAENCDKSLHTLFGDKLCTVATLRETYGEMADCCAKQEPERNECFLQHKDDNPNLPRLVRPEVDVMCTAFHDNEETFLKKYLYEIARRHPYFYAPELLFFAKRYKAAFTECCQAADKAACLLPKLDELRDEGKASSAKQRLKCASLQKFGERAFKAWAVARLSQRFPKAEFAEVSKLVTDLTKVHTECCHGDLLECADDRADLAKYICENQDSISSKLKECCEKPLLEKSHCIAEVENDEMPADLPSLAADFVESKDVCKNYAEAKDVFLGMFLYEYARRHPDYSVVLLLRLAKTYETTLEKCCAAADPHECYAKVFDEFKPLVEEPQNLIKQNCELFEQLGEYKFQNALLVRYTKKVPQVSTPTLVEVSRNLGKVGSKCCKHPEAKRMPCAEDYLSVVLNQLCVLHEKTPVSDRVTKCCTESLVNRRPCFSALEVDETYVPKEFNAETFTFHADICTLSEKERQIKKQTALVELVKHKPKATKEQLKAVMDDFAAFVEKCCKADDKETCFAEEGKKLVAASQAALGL

B1: F027500069 (VHH)
chain: DVQLVESGGGVVQPGGSLRLSCTASGFTFSTADMGWFRQAPGKGREFVARISGIDGTTYYDEPVKGRFTISRDNSKNTVYLQMNSLRPEDTALYYCRSPRYADQWSAYDYWGQGTLVTVSSGGGGSGGGSEVQLVESGGGVVQPGGSLRLSCAASGRIFSLPASGNIFNLLTIAWYRQAPGKQRELVATIESGSRTNYADSVKGRFTISRDNSKKTVYLQMNSLRPEDTALYYCQTSGSGSPNFWGQGTLVTVSSGGGGSGGGSEVQLVESGGGVVQPGGSLRLSCAASGFTFRSFGMSWVRQAPGKGPEWVSSISGSGSDTLYADSVKGRFTISRDNSKNTLYLQMNSLRPEDTALYYCTIGGSLSRSSQGTLVTVSSGGGGSGGGSEVQLVESGGGVVQPGGSLRLSCAASGRTLSSYAMGWFRQAPGKEREFVARISQGGTAIYYADSVKGRFTISRDNSKNTVYLQMNSLRPEDTALYYCAKDPSPYYRGSAYLLSGSYDSWGQGTLVKVSSA
notes: produced in Pichia pastoris; also called F02750069; ISVD construct F027500069
For orientation: EC50 means the midpoint of the concentration-response curve. The low end stands for greater potency, the high end for weaker potency. In general, Kd refers to the free concentration of one partner at which half of the binding sites on the other are occupied at equilibrium, for simple one-to-one binding. With B1, the binding result with human RANKL, with human LIGHT, in the experiment with human FASL, in the experiment with human TNFβ, in the experiment with human TL-1A and with human IL-12 was “no binding (tested: 1 µM)” each time. In addition, the binding result with OX40L is reported as “no binding (tested: 100 nM)”. Also, the half-maximal effective concentration (EC50) was 122 pM with human membrane TNFα [1], 693 pM with human membrane TNFα [9] and 811 pM with human membrane TNFα [13]. Moreover, the dissociation constant (Kd) with cyno TNFα [2] was 27.5 pM; with cyno IL-23 [3], 33.5 pM; in the experiment with human TNFα [4], 3.23 pM; with human serum albumin, 5900 pM; in the experiment with cyno serum albumin, 10800 pM; with cyno TNFα [5] it was 18.6 pM. Further, the values for the dissociation constant (Kd) with cyno IL-23 [6] and in the experiment with human TNFα [7] were 51.2 pM and 3.39 pM, respectively. In the experiment with cyno IL-23 [8], the “IL-23 reporter assay IC50 (M); Glo Response HEK293_human IL-23R/IL-12Rb1-Luc2P, 40 pM cyno IL-23” value was 3.23e-10 M. The “Mouse splenocyte assay IC50 (M); IL-23-induced mIL-22 production, 36 pM cyno IL-23” value with cyno IL-23 [8] amounted to 3.07e-11 M. Besides, the “fold improvement of the EC50 (24 hours against 1 hour incubation)” value with human membrane TNFα [10] was 6.6 fold. Further, in the experiment with cyno TNFα [11], the “NFkB assay IC50 (M); Glo Response HEK293_NFkB-NLucP reporter assay, 70 pM cyno TNFα” value worked out at 1.28e-10 M. In addition, the “NFkB assay IC50 (M); Glo Response HEK293_NFkB-NLucP reporter assay, 25 pM human TNFα” value with human TNFα [12] was 3.88e-11 M.
